# US11505576B2, “Polypeptides based on a scaffold” (AFFIBODY AB, priority 2018, dated 2022)
# Legend:
# [1] = Fraction of soluble product on expression in E. coli, estimated from SDS-PAGE; format: physicochemical; conditions: MGSSHHHHHHGSS-[Y#####]-A; for Estimated soluble fraction: Table 7, Ylib002Naive.I selection; for Est soluble fraction: Table 9, mutation study 5
# Method: E. coli T7E2 cells were transformed with plasmids containing the gene fragment of each respective Y variant. The resulting recombinant strains were generally cultivated in media supplemented with 50 μg/ml kanamycin at 30-37° C. in 50 ml scale using the EnPresso protocol (Enpresso GmbH). In order to induce protein expression, isopropyl-β-D-1-thiogalactopyranoside (IPTG) was added to a final concentration of 0.5 mM at an optical density at 600 nm (OD600) of approximately 10. After induction, the cultures were incubated for 16 h. The cells were harvested by centrifugation. Alternatively, the culture was performed at 37° C. in 980 ml of TSB-YE medium (tryptic soy broth 30 g/l supplemented with yeast extract 5 g/l) supplemented with 50 μg/ml kanamycin, and protein expression induced with 0.2 mM IPTG at OD600=2, followed by incubation for 5 h before harvesting of the cells by centrifugation. The total yield as well as the fraction of soluble and insoluble product of the respective Y variant was estimated based on SDS-PAGE analysis.
# [2] = Circular dichroism spectroscopy analysis (CD spectra, variable temperature measurement, refolding); format: physicochemical; conditions: MGSSHHHHHHGSS-[Y#####]-A
# Method: The respective Y variant was diluted to 0.5 mg/ml in PBS. A CD spectrum at 250-195 nm was obtained at 20° C. In addition, a variable temperature measurement (VTM) was performed to determine the melting temperature (Tm). In the VTM, absorbance was measured at 221 nm while the temperature was raised from 20° C. to 90° C. with a temperature gradient of 5° C./min. A new CD spectrum was obtained at 20° C. after the heating procedure, in order to study the refolding ability of the Y variants. The CD measurements were performed on a Jasco J-810 spectropolarimeter (Jasco Scandinavia AB) using a cell with an optical path length of 1 mm.
# (§1) Produced Y variants were subjected to CD and SPR analyses according to the methods described in Example 1.
# (§2) The Y variants were cloned, produced and characterized according to the general methods described in Example 1. Produced Y variants with point mutations and/or N-terminal or C-terminal extensions were subjected to CD and SPR analyses as described in Example 1.
# (§3) Produced Y variants were subjected to CD and SPR analyses according to the methods described in Example 1. In addition, CD spectra of selected IL-6 binding variants were also recorded at 60, 70, 80 and 90° C.
# (§4) The Y variants were cloned, produced and characterized according to the general methods described in Example 1. Produced Y variants with point mutations were subjected to CD and SPR analyses as described in Example 1. In addition, CD spectra of the IL-6 binding variants were also recorded at 60, 70, 80 and 90° C.
# insulin = molecular target: T1, insulin (Homo sapiens, UniProt P01308); assay: Kinetic analysis using surface plasmon resonance (Biacore T200), immobilized insulin; format: binding; conditions: MGSSHHHHHHGSS-[Y#####]-A
# T1 construct: purchased Roche 1376497
# Method: Kinetic constants (ka and kd) and affinities (KD) were determined for His6-tagged Y variants using a Biacore T200 instrument (GE Healthcare). Target proteins C4, IL-6 and insulin, respectively, were immobilized in separate flow cells on the carboxylated dextran layer of different CM5 chip surfaces (GE Healthcare). Immobilization was performed using amine coupling chemistry according to the manufacturer's protocol and PBS pH 7.4 supplemented with 0.1 Tween20 (PBST 0.1%) as running buffer. The ligand immobilization levels on the surfaces were 3280-8830 RU for C4, 495-1184 RU for IL-6, and 270-282 RU for insulin. One flow cell surface on each chip was activated and deactivated for use as blank during analyte injections. In the kinetic experiment, PBST 0.1% was used as running buffer at a flow rate of 30 μl/min. The analytes, i.e. Y variants, were each diluted in PBST 0.1 buffer at concentrations of 1000, 500, 100, 50 and 10 nM and injected for 5 min, followed by dissociation in running buffer for 3 min. After dissociation, the surfaces were regenerated with one injection of 30 μl 10 mM HCl. Kinetic constants were calculated from the sensorgrams using the Langmuir 1:1 model of Biacore T200 Evaluation software 2.0 (GE Healthcare).
# as §1, §2, §3, §4
# T1 sequence (P01308 25-54 limits assumed): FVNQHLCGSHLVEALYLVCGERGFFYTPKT
# T1 sequence (P01308 90-110 limits assumed): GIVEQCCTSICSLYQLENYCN
Substance,Estimated soluble fraction [1] [%],Tm ([2]; Table 7) [°C],Kd (insulin; Table 7) [nM],ka (insulin; Table 7) [M⁻¹ s⁻¹],kd (insulin; Table 7) [s⁻¹],Est soluble fraction [1] [%],"Tm ([2]; Table 9, mutation study 5) [°C]","Kd (insulin; Table 9, mutation study 5) [nM]","ka (insulin; Table 9, mutation study 5) [M⁻¹ s⁻¹]","kd (insulin; Table 9, mutation study 5) [s⁻¹]"
"Y00299: insulin binding Y variant from Ylib002Naive.I, SEQ ID NO:132 (LAEAKEAAIAELDSKGVGAYQIKFIQVAKTVEQVQILKQAILADLPA; Engineered insulin binding Y variant)",75,56,6.5,310000,0.002,,,,,
"Y00301: insulin binding Y variant from Ylib002Naive.I, SEQ ID NO:133 (LAEAKEAAIAELDSKGVGARQIKWIQQAKSVEVVQWLKQAILADLPA; Engineered insulin binding Y variant)",83,62,0.94,2.9e+07,0.056,,,,,
"Y00304: insulin binding Y variant from Ylib002Naive.I, SEQ ID NO:134 (LAEAKEAAIAELDSKGVGAYQIKFIQVAHDVEEVQILKQAILADLPA; Engineered insulin binding Y variant)",33,41,21,85000,0.0011,,,,,
"Y00310: insulin binding Y variant from Ylib002Naive.I, SEQ ID NO:135 (LAEAKEAAIAELDSKGVGAYQIKFIQIAHTVEEVQLMKQAILADLPA; Engineered insulin binding Y variant)",86,54,37,170000,0.0063,,,,,
"Y00330: insulin binding Y variant from Ylib002Naive.I, SEQ ID NO:136 (LAEAKEAAIAELDSKGVGAKYIKMIQMAKHVETVQYMKQAILASLPA; Engineered insulin binding Y variant)",67,56,120,30000,0.0037,,,,,
"Y00345: insulin binding Y variant from Ylib002Naive.I, SEQ ID NO:138 (LAEAKEAAIAELDSKGVGAYQIKFIQVAKTVEAVQAIKQAILADLPA; Engineered insulin binding Y variant)",80,53,61,290000,0.017,,,,,
"Y00356a: insulin binding Y variant from Ylib002Naive.I, SEQ ID NO:141 (LAEAKEAAIAELDSKGVGAKYIKMIQHAHYVEVVQWLKQAILAHLPA; Engineered insulin binding Y variant)",60,56,0.17,3.4e+07,0.0061,,,,,
"Y00358: insulin binding Y variant from Ylib002Naive.I, SEQ ID NO:142 (LAEAKEAAIAELDSKGVGAAKIKWIQDAKSVETVQFLKQAILAELPA; Engineered insulin binding Y variant)",97,61,10,220000,0.0023,,,,,
"Y00361: insulin binding Y variant from Ylib002Naive.I, SEQ ID NO:144 (LAEAKEAAIAELDSKGVGAKFIKMIQSAKLVETVQLLKQAILADLPA; Engineered insulin binding Y variant)",100,52,310,12000,0.0036,,,,,
"Y02688: C4 binding Y variant, Y02330 with I9L, SEQ ID NO:43 (LAEAKEAALAELDSKGVGAELIKKIQHAESVEGVQFWKQEILAYLPA; Engineered C4 binding Y variant)",,,,,,100,50,,,
"Y02689: C4 binding Y variant, Y02330 with K15Y, SEQ ID NO:44 (LAEAKEAAIAELDSYGVGAELIKKIQHAESVEGVQFWKQEILAYLPA; Engineered C4 binding Y variant)",,,,,,100,53,,,
"Y02690: C4 binding Y variant, Y02330 with Q26E, SEQ ID NO:45 (LAEAKEAAIAELDSKGVGAELIKKIEHAESVEGVQFWKQEILAYLPA; Engineered C4 binding Y variant)",,,,,,100,53,,,
"Y02691: C4 binding Y variant, Y00792 with K15Y Q26E, SEQ ID NO:46 (LAEAKEAAIAELDSYGVGADLIKKIEQASSVEGVQFWKQEILAQLPA; Engineered C4 binding Y variant)",,,,,,100,58,,,
"Y02692: C4 binding Y variant, Y02309 with K15Y Q26E, SEQ ID NO:47 (LAEAKEAAIAELDSYGVGADLIKKIEKAESVEGVQFWKQEILATLPA; Engineered C4 binding Y variant)",,,,,,100,57,,,
"Y02693: C4 binding Y variant, Y02330 with K15Y Q26E, SEQ ID NO:48 (LAEAKEAAIAELDSYGVGAELIKKIEHAESVEGVQFWKQEILAYLPA; Engineered C4 binding Y variant)",,,,,,100,52,,,
"Y02709: insulin binding Y variant, Y00358 with I9L, SEQ ID NO:149 (LAEAKEAALAELDSKGVGAAKIKWIQDAKSVETVQFLKQAILAELPA; Engineered insulin binding Y variant)",,,,,,100,54,380,27000,0.01
"Y02710: insulin binding Y variant, Y00358 with K15Y, SEQ ID NO:150 (LAEAKEAAIAELDSYGVGAAKIKWIQDAKSVETVQFLKQAILAELPA; Engineered insulin binding Y variant)",,,,,,100,61,14,190000,0.0027
"Y02711: insulin binding Y variant, Y00358 with Q26E, SEQ ID NO:151 (LAEAKEAAIAELDSKGVGAAKIKWIEDAKSVETVQFLKQAILAELPA; Engineered insulin binding Y variant)",,,,,,100,62,54,1500,0.008
"Y02713: insulin binding Y variant, Y00310 with K15Y, SEQ ID NO:153 (LAEAKEAAIAELDSYGVGAYQIKFIQIAHTVEEVQLMKQAILADLPA; Engineered insulin binding Y variant)",,,,,,100,51,190,110000,0.014
"Y02714: insulin binding Y variant, Y00310 with Q26E, SEQ ID NO:154 (LAEAKEAAIAELDSKGVGAYQIKFIEIAHTVEEVQLMKQAILADLPA; Engineered insulin binding Y variant)",,,,,,100,53,540,290000,0.16
